From patent publication US7018836B1, “P-TEFb compositions, methods and screening assays” (priority 1996, dated 2006)

B1: Tat: 86 residue HIV-1 Tat followed by a streptavidin binding tag at its carboxyl terminus (protein)
chain: MEPVDPRLEPWKHPGSQPKTACTNCYCKKCCFHCQVCFITKALGISYGRKKRRQRRRAHQNSQTHQASLSKQPTSQPRGDPTGPKE
modifications: left off: large carriers
B2: DBS: Drosophila P-TEFb small subunit, HIS-tagged recombinant (protein)
chain: MAHMSHMLQQPSGSTPSNVGSSSSRTMSLMEKQKYIEDYDFPYCDESNKYEKVAKIGQGTFGEVFKAREKKGNKKFVAMKKVLMDNEKEGFPITALREIRILQLLKHENVVNLIEICRTKATATNGYRSTFYLVFDFCEHDLAGLLSNMNVKFSLGEIKKVMQQLLNGLYYIHSNKILHRDMKAANVLITKHGILKLADFGLARAFSIPKNESKNRYTNRVVTLWYRPPELLLGDRNYGPPVDMWGAGCIMAEMWTRSPIMQGNTEQQQLTFISQLCGSFTPDVWPGVEELELYKSIELPKNQKRRVKERLRPYVKDQTGCDLLDKLLTLDPKKRIDADTALNHDFFWTDPMPSDLSKMLSQHLQSMFEYLAQPRRSNQMRNYHQQLTTMNQKPQDNSMIDRVW
modifications: left off: small tags and cut ends
notes: Drosophila P-TEFb small subunit, HIS-tagged recombinant

Tests used:
[1] = tested on: transcription from HIV-1 LTR; experiment: In vitro Tat transactivation in HNE with TAR and DTAR templates (FIG. 8); assay type: biochemical, human
Description: The transcription template (Nco I-digested pLTR-4/CAT vector containing the HIV-1 LTR from −153 to +80) was used in a pulse-chase transcription experiment. Reactions (12 μl total; 20 mM HEPES, pH 7.6, 7 mM MgCl2, 20 μg/ml DNA template, 3 μl HNE, 64 mM KCl, with 50 μM DRB or 0.3 μl Drosophila P-TEFb (Marshall et al., 1996) as indicated) were pre-incubated for 20 minutes at 30° C., pulsed for 2 minutes by adding ATP, GTP, UTP to 600 μM each and 5 μCi [α-^32P]CTP (˜0.1 mM), and chased for 5 minutes by adding CTP to 1.2 mM. Reactions were stopped, phenol extracted and analyzed on a 6% polyacrylamide gel as described (Marshall and Price, 1995). pLTR-TAR-Luc and pLTR-DTAR-Luc plasmids were digested with Eco RI to generate TAR and DTAR template that were used in the studies. The TAR template contains HIV-1 LTR from −475 to +76, while the DTAR template contains HIV-1 LTR from −475 to +19. Transcription with TAR and DTAR templates generates runoffs of 694 and 646 nucleotides, respectively. The transcription reaction mix contained 20 mM HEPES (pH7.6), 7 mM MgCl2, 60 mM KCl, 0.5 μl HNE (or depHNE as indicated), 20 μg/ml TAR template (or DTAR template as indicated), indicated amount of HIV-1 Tat (86 residue HIV-1 Tat followed by a streptavidin binding tag at its carboxyl terminus) and DRB. The reaction mix was pre-incubated for 15 minutes at 30° C. and the transcription was started by adding nucleotides to final concentrations of 50 μM ATP, 50 μM GTP, 50 μM UTP, 10 μM CTP, and 5 μCi [α-^32P]CTP (˜0.1 mM), and continuously labeled for 20 minutes, or by adding nucleotides to final concentrations of 50 μM ATP, 50 μM GTP, 50 μM UTP, and 5 μCi [α-^32P]CTP (˜0.1 mM), and pulsed for 2 minutes. The reactions were stopped and reaction mix were phenol-extracted. The transcripts were then analyzed on a 6% polyacrylamide gel as described (Marshall and Price, 1995).

[2] = tested on: transcription in Drosophila extract depleted of P-TEFb; experiment: Transcription activity of recombinant protein added into Drosophila extract depleted of P-TEFb (Table 1); assay type: biochemical
RNA polymerase II = experiment: Kinase assay of recombinant P-TEFb subunits with RNA polymerase II as substrate (Table 1); assay type: biochemical, Drosophila; settings: RNA polymerase II as substrate
Description: 0.4 μl of purified RNA polymerase II and various protein samples were mixed in 18 μl of 55 mM HMK. The reaction was then initiated by the addition of 2 μl of a solution containing 2 μCi of [γ-^32P]ATP (ICN) and unlabeled ATP at 10 μM, or only unlabeled ATP at concentrations from 1 to 100 μM or other NTPs or dNTPs at concentrations of 1 to 100 μM. Reactions were incubated for the indicated times at 23° C. and then terminated with SDS loading buffer. Samples were analyzed on a 6–15% SDS polyacrylamide gel which was silver stained, dried and subjected to autoradiography if the assay contained label.
Using the CTD Kinase assay, as previously described in Example 2, Section A.7, both HBL1-1 (SEQ ID NO:45), HBL2(SEQ ID NO:47) and HBL3 (SEQ ID NO:50) were substituted for the large subunit in the Drosophila transcription system. Alone “PITARLE” has little kinase activity and no detectable activity in transcription.

Molecule | stimulation of generation of runoff ([1]; HNE not depleted, TAR template, continuous labeling, 10 ng/μl Tat) | increase of runoff in presence of 50 μM DRB, DTAR template or absence of human P-TEFb ([1]; continuous labeling) | increase of transcription initiation (short pulsed transcripts) ([1]; pulse-only protocol, 10 ng/μl Tat) | Transcription activity [2] | Kinase activity (RNA polymerase II)
B1 | about 12 fold | about two | about two |  | 
B2 |  |  |  | none | very little
